# Laboratory results: the supplement of paper PMC9112550, “Optimization of the antimicrobial peptide Bac7 by deep mutational scanning” (BMC Biology, 2022)
# Test system: Escherichia coli TOP10
# Test: shrunken log2 fold change of peptide-encoding DNA abundance (4.5 h post-induction vs induction); higher = less antimicrobial activity (less host growth inhibition)
# Details: time post-induction: 4.5 h; library: site-saturation at positions 5, 18, 19, 20
# 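Also: peptides expressed intracellularly from a pBAD plasmid library in pooled LB shake-flask culture, induced with 0.3% L-arabinose, DNA abundance read by NGS, three biological replicates, DESeq2 with apeglm shrinkage.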
row,Sequence,shrunken log2 fold change
1,RRIRCRPPRLPRPRPRPMYAPRP,0.0401
2,RRIRSRPPRLPRPRPRPHGHPRP,-0.167
3,RRIRFRPPRLPRPRPRPAWEPRP,0.62
4,RRIRNRPPRLPRPRPRPMYKPRP,0.0573
5,RRIRWRPPRLPRPRPRPEGIPRP,-0.00186
6,RRIRKRPPRLPRPRPRPPQWPRP,1.37
7,RRIRLRPPRLPRPRPRPMPEPRP,0.221
8,RRIRARPPRLPRPRPRPYVEPRP,-0.162
9,RRIRNRPPRLPRPRPRPRMLPRP,0.132
10,RRIRARPPRLPRPRPRPFQMPRP,-0.0651
11,RRIRDRPPRLPRPRPRPMDSPRP,-0.0175
12,RRIRRRPPRLPRPRPRPLIVPRP,-0.0866
13,RRIRARPPRLPRPRPRPTDAPRP,0.607
14,RRIRYRPPRLPRPRPRPINTPRP,-0.274
15,RRIRDRPPRLPRPRPRPHQKPRP,0.365
16,RRIRYRPPRLPRPRPRPNNWPRP,-0.398
17,RRIRNRPPRLPRPRPRPQVQPRP,-0.524
18,RRIRIRPPRLPRPRPRPQSKPRP,-0.493
19,RRIRMRPPRLPRPRPRPEGKPRP,3.36
20,RRIRMRPPRLPRPRPRPVCKPRP,0.222
21,RRIRFRPPRLPRPRPRPPQAPRP,0.558
22,RRIRKRPPRLPRPRPRPWDWPRP,0.504

row,Sequence,shrunken log2 fold change
1,RRIRFRPPRLPRPRPRPAFKPRP,-0.347
2,RRIRCRPPRLPRPRPRPWISPRP,-0.085
3,RRIRKRPPRLPRPRPRPMKWPRP,-0.0374
4,RRIRLRPPRLPRPRPRPLEGPRP,0.765
5,RRIRLRPPRLPRPRPRPMRRPRP,0.412
6,RRIRFRPPRLPRPRPRPCPPPRP,-0.131
7,RRIRLRPPRLPRPRPRPEWQPRP,-0.0018
8,RRIRVRPPRLPRPRPRPNWPPRP,0.282
9,RRIRMRPPRLPRPRPRPQKLPRP,0.0146
10,RRIRRRPPRLPRPRPRPVHDPRP,-0.305
11,RRIRKRPPRLPRPRPRPLIDPRP,0.449
12,RRIRTRPPRLPRPRPRPLFVPRP,-0.382
13,RRIRERPPRLPRPRPRPCHHPRP,-0.209
14,RRIRMRPPRLPRPRPRPGHQPRP,0.568
15,RRIRKRPPRLPRPRPRPIKTPRP,-0.0153
16,RRIRGRPPRLPRPRPRPYFMPRP,-0.389
17,RRIRQRPPRLPRPRPRPLPTPRP,0.131
18,RRIRMRPPRLPRPRPRPMHDPRP,0.192
19,RRIRKRPPRLPRPRPRPLSLPRP,-0.131
20,RRIRMRPPRLPRPRPRPRECPRP,0.0611
21,RRIRTRPPRLPRPRPRPAMVPRP,-0.208
22,RRIRGRPPRLPRPRPRPCSKPRP,0.09

row,Sequence,shrunken log2 fold change
1,RRIRNRPPRLPRPRPRPKSHPRP,-0.253
2,RRIRDRPPRLPRPRPRPLWTPRP,0.163
3,RRIRPRPPRLPRPRPRPKMPPRP,-0.0926
4,RRIRHRPPRLPRPRPRPYCLPRP,-0.524
5,RRIRRRPPRLPRPRPRPAWVPRP,1.75
6,RRIRGRPPRLPRPRPRPHWWPRP,0.66
7,RRIRLRPPRLPRPRPRPCEVPRP,0.0632
8,RRIRRRPPRLPRPRPRPTSRPRP,0.312
9,RRIRSRPPRLPRPRPRPVNTPRP,-0.691
10,RRIRARPPRLPRPRPRPAKSPRP,0.061
11,RRIRTRPPRLPRPRPRPPGDPRP,0.189
12,RRIRIRPPRLPRPRPRPLVTPRP,-0.105
13,RRIRSRPPRLPRPRPRPQPYPRP,-0.159
14,RRIRARPPRLPRPRPRPMNNPRP,-0.186
15,RRIRFRPPRLPRPRPRPGYLPRP,-0.0745
16,RRIRSRPPRLPRPRPRPDVSPRP,-0.0357
17,RRIRIRPPRLPRPRPRPGYIPRP,-0.752
18,RRIRWRPPRLPRPRPRPMACPRP,-0.0978
19,RRIRIRPPRLPRPRPRPNPTPRP,-0.17
20,RRIRLRPPRLPRPRPRPCSQPRP,-0.0964
21,RRIRARPPRLPRPRPRPRNFPRP,-0.0153
22,RRIRPRPPRLPRPRPRPVLAPRP,0.668

row,Sequence,shrunken log2 fold change
1,RRIRPRPPRLPRPRPRPKTFPRP,-0.322
2,RRIRMRPPRLPRPRPRPRPTPRP,1.27
3,RRIRLRPPRLPRPRPRPFCTPRP,-0.105
4,RRIRNRPPRLPRPRPRPISSPRP,-0.0365
5,RRIRLRPPRLPRPRPRPCFVPRP,-0.392
6,RRIRMRPPRLPRPRPRPDKMPRP,0.323
7,RRIRERPPRLPRPRPRPNIIPRP,-0.338
8,RRIRCRPPRLPRPRPRPDPFPRP,-0.187
9,RRIRNRPPRLPRPRPRPTAPPRP,0.517
10,RRIRPRPPRLPRPRPRPASYPRP,-0.212
11,RRIRDRPPRLPRPRPRPEASPRP,0.447
12,RRIRDRPPRLPRPRPRPVWVPRP,-0.203
13,RRIRQRPPRLPRPRPRPGSGPRP,0.135
14,RRIRMRPPRLPRPRPRPEPSPRP,2.72
15,RRIRRRPPRLPRPRPRPCAWPRP,0.0864
16,RRIRDRPPRLPRPRPRPFMFPRP,0.033
17,RRIRARPPRLPRPRPRPSLHPRP,0.162
18,RRIRVRPPRLPRPRPRPQFLPRP,0.052
19,RRIRWRPPRLPRPRPRPNKRPRP,0.149
20,RRIRRRPPRLPRPRPRPPMRPRP,1.03
21,RRIRQRPPRLPRPRPRPPFNPRP,-0.159
22,RRIRPRPPRLPRPRPRPYAGPRP,-0.00254

row,Sequence,shrunken log2 fold change
1,RRIRQRPPRLPRPRPRPRIYPRP,-0.159
2,RRIRPRPPRLPRPRPRPSHMPRP,-0.466
3,RRIRRRPPRLPRPRPRPTVVPRP,0.0199
4,RRIRKRPPRLPRPRPRPGSLPRP,-0.0469
5,RRIRFRPPRLPRPRPRPYSTPRP,0.0586
6,RRIRIRPPRLPRPRPRPFEKPRP,-0.103
7,RRIRYRPPRLPRPRPRPTHNPRP,-0.702
8,RRIRDRPPRLPRPRPRPDPYPRP,0.00859
9,RRIRCRPPRLPRPRPRPNTDPRP,-0.27
10,RRIRWRPPRLPRPRPRPYSFPRP,-0.107
11,RRIRCRPPRLPRPRPRPLMNPRP,-0.645
12,RRIRHRPPRLPRPRPRPDCRPRP,-0.0597
13,RRIRMRPPRLPRPRPRPPLPPRP,0.879
14,RRIRARPPRLPRPRPRPFISPRP,0.112
15,RRIRGRPPRLPRPRPRPQCCPRP,0.168
16,RRIRKRPPRLPRPRPRPHCHPRP,0.0986
17,RRIRGRPPRLPRPRPRPNNNPRP,-0.0957
18,RRIRGRPPRLPRPRPRPVQMPRP,0.844
19,RRIRMRPPRLPRPRPRPTKEPRP,-0.0201
20,RRIRNRPPRLPRPRPRPGMMPRP,-0.247
21,RRIRSRPPRLPRPRPRPLARPRP,0.0314
